We go through 1 protein from article PMC3633684.

Substrate in this data set: CC(=O)Oc1ccc([N+](=O)[O-])cc1
The data set can be described thus: purified protein. The settings on record: 40 mM phosphate buffer pH 7.4, 37 °C, 0.2 μM HfsH. It is filed as biochemical, Caulobacter vibrioides.

B1: HfsH (Caulobacter vibrioides CB15) (protein)
chain: MPMEFEKVDAYEPDRSLKGKLRRRLIRLAHRRPAKVALERPMVSFSFDDAPATACEAGARALEARGLRGTYYFAAGLTGRDGPMGRYATGEDARRLHEAGHEIACHTYSHLDCGQSSQTETLADVDRNAESLAAWGAGDPVSFAYPYGDVAAPAKTALSGRFKTLRALHHGLITDGADLNQTPAVGIEGEDGETVAKAWLDKAKARKAWLILYTHDVAGQPSQWGCTTEALERLIDRALADGFDVVTVAEGSRRIGL
B1: the Michaelis-Menten constant (Km) (in general, the substrate concentration at which the rate is half of its maximum) stood at 11.74 mM.
